Measured values as given in patent US20140072580, “NOVEL TARGETS FOR TREATMENT OF HYPERCHOLESTEROLEMIA” (THE REGENTS OF THE UNIVERSITY OF CALIFORNIA, published 2014).
Where a chain is given by its changes, count along the chain named.

T1: LXR/RXR heterodimer (LXRalpha (NR1H3)/RXR; isoforms in EMSA not stated) (UniProt Q9Z0Y9;P28700 Q9Z0Y9:1-445,P28700:1-467)
T1 sequence 1: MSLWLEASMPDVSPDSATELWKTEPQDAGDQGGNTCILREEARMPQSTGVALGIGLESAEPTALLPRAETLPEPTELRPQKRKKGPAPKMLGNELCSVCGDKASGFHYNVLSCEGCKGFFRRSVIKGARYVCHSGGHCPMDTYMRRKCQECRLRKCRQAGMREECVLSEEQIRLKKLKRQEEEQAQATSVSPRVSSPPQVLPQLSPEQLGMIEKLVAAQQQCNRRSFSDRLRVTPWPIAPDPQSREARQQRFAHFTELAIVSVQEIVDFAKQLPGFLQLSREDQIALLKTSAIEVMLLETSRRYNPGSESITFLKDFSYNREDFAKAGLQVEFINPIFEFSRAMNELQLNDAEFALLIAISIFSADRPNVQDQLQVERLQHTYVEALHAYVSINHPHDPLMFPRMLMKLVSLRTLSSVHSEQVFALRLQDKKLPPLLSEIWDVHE
T1 sequence 2: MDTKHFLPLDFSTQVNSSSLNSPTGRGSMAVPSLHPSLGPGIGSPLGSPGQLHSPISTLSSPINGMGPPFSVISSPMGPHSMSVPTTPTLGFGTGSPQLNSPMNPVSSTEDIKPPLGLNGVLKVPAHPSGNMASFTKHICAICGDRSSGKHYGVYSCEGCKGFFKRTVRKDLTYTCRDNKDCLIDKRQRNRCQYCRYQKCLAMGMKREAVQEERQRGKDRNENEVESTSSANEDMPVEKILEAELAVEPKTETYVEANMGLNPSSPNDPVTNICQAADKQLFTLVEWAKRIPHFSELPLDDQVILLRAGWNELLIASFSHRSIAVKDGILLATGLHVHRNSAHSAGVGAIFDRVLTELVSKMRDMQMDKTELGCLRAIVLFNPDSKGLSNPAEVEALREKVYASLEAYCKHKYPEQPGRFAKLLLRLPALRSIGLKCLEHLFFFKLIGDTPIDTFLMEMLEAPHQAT

B1: Mylip WT DR4 LXRE (dsDNA)
DNA 1: TCCCTACTTAACCTACAATGACCTCAAGTTTC
DNA 2: GAAACTTGAGGTCATTGTAGGTTAAGTAGGGA
B2: Mylip MUT DR4 LXRE (dsDNA)
DNA 1: B1 DNA 1 with A11T, C12T, A21T, C22T
DNA 2: B1 DNA 2 with G11A, T12A, G21A, T22A

Assays:
[1] = target: T1, LXR/RXR heterodimer (LXRalpha …); assay: EMSA; binding competed by excess unlabeled Mylip LXRE; protein source not stated; settings: label: radiolabeled
Description: (§1) It also could not be secondary to induction of SREBP-1c, because oxysterols that block SREBP processing still induced Mylip expression (FIG. 6B). LXRs activate target genes by binding to consensus elements (LXREs) in their promoters. We identified an LXRE approximately 2.5 kb upstream of the mouse Mylip translation start site (FIG. 6C) and generated a reporter construct encompassing this region.
(§2) A 10 Kb promotor region upstream of the mMylip transcription initiation site was analyzed for the presence of LXR binding elements. A consensus DR4 site was identified 2454 upstream of the transcription initiation site. Olignoucleotides encompassing this element were designed, annealed and tested for binding to LXR/RXR heterodimers in a standard EMSA assay. A 2.5 kB promotor fragment upstream of the transcription initiation site containing the identified LXRE was amplified by PCR from BAC clone RP23-17N24 using mMylip-prom-FWD […] (SEQ ID NO:20) or mMylip-prom-ΔFWD […] (SEQ ID NO:21) with the common antisense primer mMylip-prom-REV […] (SEQ ID NO:22). Amplified fragments were cloned as SacI/XhoI fragments into pGL3 basic (Promega). Promotor analysis was done as previously described (Joseph et al. (2002) J Biol Chem 277: 11019).

[2] = target: T1, LXR/RXR heterodimer (LXRalpha …); assay: EMSA; no binding to mutant LXRE; settings: label: radiolabeled
Description: as §1, §2

Row | Binder | binding result [1] | binding result [2]
1 | B1 | binds | –
2 | B2 | – | no binding
